Measurements published in a protein production outcome set (Wang et al. 2014).

assay: label from the status in PepcDB records
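Also: failed if final PepcDB status was selected cloned or expressed and not failed if soluble or beyond.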

Row | Sequence | protein production
1 | MSKLTLGSYPHMLGFEQLERLLERSAKSGNEGYPPYNIEQTSETSYRITLAVAGFAEADLSITVEDRQLVIRGRQSDDSEGRVFLHRGIAARQFQRMFVLAEGVEVGEAVMENGLLHVDLSRAVPQSVVQTINIRKG | failed
2 | MSKNNTLSMSPNFFVSGGVLLAIFTLIHLLYAGLIRPAAEVAMAEKGTEALTAFSVIFKDVEQQVCISLMLFCLFLMLYKLWRLIDEEEIYSRDLLESYDKSEALDVDAALNDLESSAYKETPAYSTWINCIRRFKNTKNVQHAADTIESSVDNIAIQLESGNNMIRYIIWAIPSIGFVGTVRGIGSALAQADKALDGDIAGMTASLGVAFNSTLVALFISLILMLFMHLLNSRQDKMVIRTQESCEKHLLSHLHS | failed
3 | MSKRMRPSWYRDSPPKQLPYAFVPEEDDDVVILPQVDNSALLGRLQLSLVGRMFHQGGRSTEALLSFLPNIWDVEGRVRGVSLGDSRFQFFFESETDLQKVLNKRPCHFSKWSFALERWKSHIGISFPDTMTFWIKTEGIPTEFWEEEVLRNFGASIGAVRRVDSSKGRLQISVKADVPFRFNKNAQLPNGEVVKVKLFYEKLF | failed
4 | MSKVALFAGGDLSYISRDFDYFVGIDRGSLFLLENGLPLNMAVGDFDSVSQKAFTDIKEKAELFITAHPEKNDTDTELALKEVFARFPEAEVTIFGAFGGRMDHLLSNIFLPSDPGIAPFMAQIALRDQQNMITYRPAGQHLIHQEEGMTYVAFMAEGEADLTITGAKFELTQDNFFKKKIYSSNAFIHQPITVSLPSGYLIIIQSKDWSLEHHHHHH | not failed
5 | MSKVFICAAIPDEQAIKEEGAVAVATAIEAGDERRARAKFHWQFLEHYPAAQDCAYKFLVCEDKPGIPRPALDSWDAEYMQENRWDEGAASFVPVETESDPMNVAFDKLAPEVQNAVMVKFDTCENITVDMVISAQELLQEDMATFDGHIVEALMKMPEVNAMYPELKLHAIGWVKHKCKPGAKWPEIQAEMRIWKKRREGERKETGKYTSVVDLARARVHRQHTENSAEKIPPVTAVIRREYKQTWKTLDDELAYALWPGDVDAGNIDGSIHRWAKNEVIDNDREDWKRISASMRKQPDALRYDRQTIFGLVRERPIDIHKDPVALNKYITEYLTTKGVFEDEGTNQSATDTLSSPVPETDAVETAIPDNEKTECKVEVEPSVEREGPFYFLFTDKDGEKYGRANKLSGLDKALAAGATEITKEEYFARKNGTYTGLPQNANTAQNSEQPEPVKVTADEVKKIMQAANISQPDANQLLAASRGEFVAGISDPNDPKWVKGIETRDSVNQNQQETEQNDQKAEQNSPNTQQNEPETKQPEPVAQQEPEKVCTACGQTGGGNCPDCGAVMGDATYQETFDEEYQVEVQEDDPEEMEGAEHPHKENTDGNQHHDSDNETGETADHSIKVNGHQEITSTSRTCDHLMIDLETMGKNPDAPIISIGAIFFDPQTGDMGPEFSKTIDLETAGGVIDRDTIKWWLKQSREAQSAIMTDEIPLDDALLQLREFIDENSGEFFVQVWGNGANFDNTILRRSYERQGIPCPWRYYNDRDVRTIVELGKAIDFDARTAIPFEGERHNALDDARYQAKYVSVIWQKLIPNQADF | failed
6 | MSKVLVLKSSILAGYSQSGQLTDYFIEQWREKHVADEITVRDLAANPVPVLDGELVGAMRPGDAPLTPRQQDALALSDELIAELKAHDVIVIAAPMYNFNIPTQLKNYFDLIARAGITFRYTEKGPEGLVTGKRAVVLSSRGGIHKDTPTDLIAPYLKVFLGFIGITDVNFVFAEGIAYGPEVAAKAQADAKAAIDSVVAA | not failed
7 | MSKVLVLKSSILAGYSQSNQLSDYFVEQWREKHSADEITVRDLAANPIPVLDGELVGALRPSDAPLTTRQQEALALSDELIAELKAHDVIVIAAPMYNFNISTQLKNYFDLVARAGVTFRYTENGPEGLVTGKKAIVITSRGGIHKDGPTDLVTPYLSTFLGFIGITDVKFVFAEGIAYGPEMAAKAQSDAKAAIDSIVAA | failed
8 | MSLAAARGGVGAGPDVRPVHGVHARMAEKMTLSHKEIPTAKASVEVICAELLRLRDRFVSAAPEITPFALTLRLLVIALKHNVILNSTWVDSGEGPQVHVHRGVHLGFGAATERGLLVPVVTDAQDKNTRELASRVAELITGAREGTLTPAELRGSTFTVSNFGALGVDDGVPVINHPEAAILGLGAIKPRPVVVGGEVVARPTMTLTCVFDHRVVDGAQVAQFMCELRDLIESPETALLDLEGHHHHHH | not failed
9 | MSLADTVRMGTEGAYPPYNFINDAGEVDGFERELGDELCKRAGLTCEWVKNDWDSIIPNLVSGNYDTIIAGMSITDERDEVIDFTQNYIPPTASSYVATSDGADLSGIVAAQTATIQAGYIAESGATLVEFATPEETIAAVRNGEADAVFADRDYLVPIVAESGGELMFVGDDVPLGGGVGMGLRESDGELRGKFDAAITSMKEDGTLNTMIKKWFGEDAAVYEEGHHHHHH | not failed
10 | MSLAEHKGDVMIVDDDAHVRIAVKTILSDAGFHIISADSGGQCIDLLKKGFSGVVLLDIMMPGMDGWDTIRAILDNSLEQGIAIVMLTAKNAPDAKMIGLQEYVVDYITKPFDNEDLIEKTTFFMGFVRNQTGNEGHHHHHH | not failed
11 | MSLAPCGLVPSARQLEWYNREMIAFFHFGINTFEEYVNEGDGKASTAIFNPTALDCRQWMQTLKAAGIPAAILTAKHADGFCLWPSKYTDYSVKNAAWKNGKGDVVREFVDACEEYGLKAGIYLGPHDRHEHLSPLYTTERYKEYYAHQLGELMSDYGKIWETWWDGAGADELTTPVYRHWYKIVREKQPDCVIFGTKNSYPFADVRWMGNEAGEAGDPCWATTDSVAIRDEAQYYKGLNEGMLDGDAYIPAETDVSIRPSWFYHAEEDSRVKSVRELWDIYCTSVGRNSVLLLNFPPDRRGLIHSTDSLHAALLKQGIDETFSTNLLRGAKVKATNVRGAKYSPEKMLDNEKNTYFAGKDGEVKADIIFTLPKTIEFDCLMIEEVIELGHRTTKWSVEYTVDGKNWITIPEATDKQAIGHKWIVRLAPVKAKQVRLRIQDGKACPAIHTFGVYKQSPVFKEGHHHHHH | not failed
12 | MSLAQGRQVIGLDIGTTSTIAILVRLPDTVVAVASRPTTLSSPHPGWAEEDPAQWWDNARAVLAELKTTAGESDWRPGGICVTGMLPAVVLLDDRGAVLRPSIQQSDGRCGDEVAELRAEVDSEAFLARTGNGVTQQLVTAKLRWIERHEPAVFGAIATVCGSYDYINMLLTGERVVDRNWALEGGFIDLASGTVEADLVALAHIPPSAVPPAHPTHRVLGAVTAEAAALTGLPTGLPVYGGAADHIASALAAGITRPGDVLLKFGGAGDIIVASATAKSDPRLYLDYHLVPGLYAPNGCMAATGSALNWLAKLLAPEAGEAAHAQLDALAAEVPAGADGLVCLPYFLGEKTPIHDPFASGTFTGLSLSHTRGHLWRALLEAVALAFRHHVAVLDDIGHAPQRFFASDGGTRSRVWMGIMADVLQRPVQLLANPLGSAVGAAWVAAIGGGDDLGWDDVTALVRTGEKITPDPAKAEVYDRLYRDFSALYATLHPFFHRSREGHHHHHH | not failed
13 | MSLASNKKYTFACLLPKHLEGEYWTDVQKGIREAVTTYSDFNISANITHYDPYDYNSFVATSQAVIEEQPDGVMFAPTVPQYTKGFTDALNELGIPYIYIDSQIKDAPPLAFFGQNSHQSGYFAARMLMLLAVNDREIVIFRKIHEGVIGSNQQESREIGFRQYMQEHHPACNILELNLHADLNIEDSRMLDDFFREHPDVKHGITFNSKVYIIGEYLQQRRKSDFSLIGYDLLERNVTCLKEGTVSFLIAQQPELQGFNSIKTLCDHLIFRKEVACTNYMPIDLLTKENIDYYHSEGHHHHHH | not failed
14 | MSLDDIINNMIDKLKLLVHFDRISFLLLANETLKLSHVYPKGSHSLDIGSTIPKEQSLYWSALDQRQTIFRSLTDTQDNFYEKQYLAILDLKSILVIPIYSKNKRVGVLSIGRKQQIDWSLDDLAFLEQLTDHLAVSIENVELYGQVLRSKQEWEDTFKAVD | not failed
15 | MSLDKGDKAPDFALPGKTGVVKLSDKTGSVVYLDFWASWCGPCRQSFPWMNQMQAKYKAKGFQVVAVNLDAKTGDAMKFLAQVPAEFTVAFDPKGQTPRLYGVKGMPTSFLIDRNGKVLLQHVGFRPADKEALEQQILAALGGNEGHHHHHH | not failed
16 | MSLDQIKIAYIGGGSQGWARSLMSDLSIDERMSGTVALYDLDFEAAQKNEVIGNHSGNGRWRYEAVSTLKKALSAADIVIISILPGSLDDMEVDVHLPERCGIYQSVGDTVGPGGIIRGLRAVPIFAEIARAIRDYAPESWVINYTNPMSVCTRVLYKVFPGIKAIGCCHEVFGTQKLLAEMVTERLGIEVPRREDIRVNVLGINHFTWITKASYRHIDLLPIFREFSAHYGESGYELEGECWRDSVFCSAHRVAFDLFETYGAIPAAGDRHLAEFLPGPYLKQPEVWKFHLTPISFRKQDRAEKRQETERLIVQQRGVAEKASGEEGVNIIAALLGLGELVTNVNMPNQGQVLNLPIQAIVETNAFITRNRVQPILSGALPKGVEMLAARHISNQEAVADAGLTKDTGLAFQAFLNDPLVQIDRSDAEQLFNDMLQCIMQSEGHHHHHH | not failed
17 | MSLEESLEQLKRQYLHALPDKKKQIITLWVSLRKNWQSYMLSAVYREVHNLKGSSETFGLTETKDIVDKLELQLKNLLDAPAPTLNLIKGLDTLFHQLLQNNQHYLPAAPVVEAQMQQNPYNPSKARHEYCIAIIEDDNNVGAMITKQLHEFGFNVQHFLNFTDFIKVQYASPFDLILLDLILPDYTEDALFEAACEFEKNNTRVFVLSSRSDFDMRLLAIRANVSEYFVKPAETTLLVRKIHQWLKMSDKPPLKVLLVDDQQSMVDYFSSLLRSHGLMVRGMTKPEQVIPTLEQFEPDLFIFDLYMPGVNGLELARMIRQLDKYTSSPILVLSSDDTMQNKVSIIQAGSDDLISKQTAPSLFVTQVISRAQRGHDIRSSASRDSLTGLLNHTQILVAARHCINLAKRANSSVCIAMLDLDHFKQVNDTYGHSGGDKVLLAFAHLLQQSLRAADFMGRYGGEEFMLVIPDMPAPLVIAKVNAIRESFSNIVFVEEGAEFKVTLSGGLAFSTECHEFQECLLLADKNLYEAKRTGRNRIINTLVK | failed
18 | MSLEKQIESYYQEIAQLIIDMIPEEWAEVRFYAQEDHDGWKIFFFHYLSASSDEWTKDIDIRDVIKVPQDEFMEKYNELSFCISDFRKDYAEAFGEPWMSFQMTFYASGKFNIDFYYDKNPFDTFLTRLAWQYEHFGTIPEDSFYKETLNEYLEEKAQGKRYPFLEPLKEEEGHHHHHH | not failed
19 | MSLELPAEVQEMPIYREWISGILAGKIASPFWEMAQPQKNQHCLDIGCGVSFLIYPWRDWQAFFYGQDVSNVARDTLNSRGSQLNSKLFKGVELGAAHQLKYTLSYFDLAIATGFSCYFPLEYWTSVLQAVKRVLKPDGHFVFDILNAAHPQAEDWAVLETYLGAEVFLEPVTEWEKIINAAGAKVVGRQPGEFFDLYKLRLEHHHHHH | not failed
20 | MSLENKFARTVLGDIPVEKLGITDCHDHFIKNGGPEVEEHIDFLMLNVDASIKEFKEFIDRGGSTIVTMDPPNVGRDVLKTLEIANAVKNLGGNVIMSTGFHKAKFYDKYSSWLAVVPTEEIVKMCVAEIEEGMDEYNYNGPVVKRSKAKAGIIKAGTGYGAIDRLELKALEVAARTSILTGCPILVHTQLGTMALEVAKHLIGFGANPDKIQISHLNKNPDKYYYEKVIKETGVTLCFDGPDRVKYYPDSLLAENIKYLVDKGLQKHITLSLDAGRILYQRNYGLTKGKQTFGLAYLFDRFLPLLKQVGVSKEAIFDILVNNPKRVLAFDEKRNFDPLKVSKEVLELKKELNLNEGHHHHHH | not failed
21 | MSLERLRVAAYCRVSTDSEDQLNSYKSQVQYYTDMIKKNKEWVLADIYADEAITGTQVTKREDFQRMINDCMNGEIDMVFTKSISRFARNTLDTLKYVRMLKERNIAVYFEDEKINTLTMDGELLLVVLSSVAQQEVENISANVKKGLKMKMKRGELVGFQEGHHHHHH | not failed
